How the values were obtained:
thrombin = thrombin (UniProt P00734); experiment: cell-based or functional assay
Factor XIa (FXIa) [1] = target: T1, Factor XIa (FXIa) (UniProt P03951;P03951 P03951:19-387,P03951:388-625); experiment: SPR; ±0.1 nM; ka 5.2e4 M-1s-1, kd 9.5e-5 s-1; 100 mM HEPES pH 7.4, 150 mM NaCl, 0.01% Tween 20, 25 C; SCRAPT reference cell subtracted; settings: chain copies: 2,2; label: 3'-biotin; predicted stem-loop hairpin with bulge and two small loops
Protocol: Kinetic measurements of aptamer binding were analyzed by SPR on a Biacore T200 (GE Healthcare). To immobilize the aptamer, a CM5 sensor chip (GE Healthcare) was activated with a 0.2 M N-ethyl-N′-(dimethylamino-propyl) carbodiimide (EDC) and 0.05 M N-hydroxysuccinimide (NHS) (Sigma) solution, followed by binding of streptavidin (0.2 mg/ml, pH 4.5). FELIAP and SCRAPT (3′ biotinylated) in 100 mM HEPES (pH 7.4), 150 mM NaCl, 0.01% Tween 20 were immobilized on the streptavidin-coated chips at a flow rate of 10 μL/min to 100 response units (RU). Flow cells were regenerated with 0.2% SDS (w/vol). FXIa at concentrations varying from 15.671 nM to 500 nM was injected at a flow rate of 50 μl/min for 180 s to monitor association, and HEPES buffer for 1800 s to monitor dissociation. The signal from the SCRAPT-immobilized flow cell was used as a reference and subtracted from the signal arising from FXIa binding to the FELIAP-immobilized cell. Binding of FXIa and aptamer was quantified by global analysis of on and off rates using the Langmuir 1:1 binding model, as determined with the instrument's software provided by the manufacturer (Biacore). All experiments were done in triplicate.

Factor XIa (FXIa) [2] = target: T1, Factor XIa (FXIa); experiment: inhibition; competitive inhibition of S2366 amidolysis; PPNE pH 7.4, 37 C; settings: chain copies: 2,2; predicted stem-loop hairpin with bulge and two small loops
Protocol: The mode of inhibition of FELIAP was investigated by fixing the concentrations of chromogenic substrate and FXIa and increasing the concentration of FELIAP and measuring the rate of substrate cleavage. A dose-dependent reduction in the reaction rate was observed as FELIAP was increased from 0 to 20 μM, while the same concentrations of SCRAPT had no inhibitory effect (FIG. 2A). Next, the concentration of chromogenic substrate S2366 was varied while keeping FXIa constant at different concentrations of FELIAP (FIG. 2B).

T1 sequence (P03951 19-387, chain 1 of 2): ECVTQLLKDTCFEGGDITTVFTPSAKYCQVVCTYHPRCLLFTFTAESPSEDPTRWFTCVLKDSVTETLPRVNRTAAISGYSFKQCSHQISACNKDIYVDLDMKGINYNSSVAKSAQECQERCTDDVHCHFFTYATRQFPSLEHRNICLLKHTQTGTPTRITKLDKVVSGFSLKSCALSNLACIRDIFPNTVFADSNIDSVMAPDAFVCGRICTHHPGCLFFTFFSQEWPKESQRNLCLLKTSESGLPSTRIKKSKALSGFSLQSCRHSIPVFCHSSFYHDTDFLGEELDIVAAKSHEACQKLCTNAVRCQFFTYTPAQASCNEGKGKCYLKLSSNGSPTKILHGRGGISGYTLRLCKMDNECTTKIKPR
T1 sequence (P03951 388-625, chain 2 of 2): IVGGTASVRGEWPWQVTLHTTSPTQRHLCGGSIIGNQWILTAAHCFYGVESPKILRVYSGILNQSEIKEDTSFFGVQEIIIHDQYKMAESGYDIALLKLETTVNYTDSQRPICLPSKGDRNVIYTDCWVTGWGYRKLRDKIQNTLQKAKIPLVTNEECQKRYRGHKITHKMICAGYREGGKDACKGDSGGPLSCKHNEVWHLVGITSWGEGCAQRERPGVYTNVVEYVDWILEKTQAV

Molecule “recombinant His-tagged hirudin variant 3” has a thrombin generation assay, FXI-depleted plasma with tissue factor: time to peak thrombin (thrombin) of 3.1 fold.

B1: FELIAP 3'-biotin (ssDNA)
DNA: GAATTCTAATACGACTCACTATAAACCTATCGGACTATTGTTAGTGATTTTTATAGTGTGCGTCCAACACATCG
Molecule B1 has a Kd (Factor XIa (FXIa) [1]) of 0.0018 µM.

B2: FELIAP (Apt10-10) (ssDNA)
DNA: B1 DNA
Molecule B2 has a Ki (Factor XIa (FXIa) [2]) of 29 µM.

— patent publication US20170321218A1, “FACTOR XIA-SPECIFIC APTAMERS” (CANADIAN BLOOD SERVICES, published 2017)
